Source: patent publication US20120264685A1 (priority 2009, published 2012)
Where no end group is shown, it is not given here. [ ]: non-standard residue; d: D form. Bip(2'-Et-4'-OMe) = CCc1cc(OC)ccc1-c1ccc(C[C@H](N)C(=O)O)cc1; αMePhe(2,6-F2) = C[C@](N)(Cc1c(F)cccc1F)C(=O)O; αMePhe(2-F) = C[C@](N)(Cc1ccccc1F)C(=O)O; αMeBip(OMe) = alpha-methylated Bip(OMe); hhPhe = N[C@@H](CCCc1ccccc1)C(=O)O; αMeD = C[C@](N)(CC(=O)O)C(=O)O; αMeP = C[C@@]1(C(=O)O)CCCN1; αMeAPPA = not defined here; αMeS = C[C@](N)(CO)C(=O)O; Aib = CC(C)(N)C(=O)O

B1: Seq. ID. No. 87 (peptide)
peptide: VHSEGTFTSD[Bip(2'-Et-4'-OMe)][αMeAPPA]
modifications: not fully specified (C-terminus); printed as VHSEGTFTSD-Bip(OMe)-(αMe-APPA); reading uncertain
B2: Seq. ID. No. 113 (peptide)
peptide: VH[Aib]EGTFT[αMeS][αMeD][Bip(2'-Et-4'-OMe)][αMeAPPA]
modifications: not fully specified (C-terminus); printed as VH-Aib-EGTFT-(αMe-Ser)-(αMe-Asp)-Bip(OMe)-(αMe-APPA); reading uncertain
B3: Seq. ID. No. 163 (peptide)
peptide: VH[Aib]EGTFT[αMeS]D[αMeBip(OMe)][αMeAPPA]
modifications: not fully specified (C-terminus); printed as VH-Aib-EGTFT-(αMe-Ser)-D-(αMe-Bip(OMe))-(αMe-APPA); reading uncertain
B4: Seq. ID. No. 169 (peptide)
peptide: VHSEGT[αMePhe(2-F)]T[αMeS]D[αMeBip(OMe)][αMeAPPA]
modifications: not fully specified (C-terminus); printed as VHSEGT-(αMe-2FPhe)-T-(αMe-Ser)-D-(αMe-Bip(OMe))-(αMe-APPA); reading uncertain
B5: Seq. ID. No. 189 (peptide)
peptide: VHSQGT[αMePhe(2-F)]TS[αMeD][αMeBip(OMe)][αMeAPPA]
modifications: not fully specified (C-terminus); printed as VHSQGT-(αMe-2FPhe)-TS-(αMe-Asp)-(αMe-Bip(OMe))-(αMe-APPA); reading uncertain
B6: Seq. ID. No. 208 (peptide)
peptide: VVH[αMeP]QGTFTSD[αMeBip(OMe)][hhPhe]
modifications: not fully specified (C-terminus); printed as VVH-(αMe-Pro)-QGTFTSD-(αMe-Bip(OMe))-(APPA)

These binders were tested against human glucagon receptor (human, UniProt P47871 26-477) (assay: cell-based or functional assay).
human glucagon receptor, sequence (P47871 26-477): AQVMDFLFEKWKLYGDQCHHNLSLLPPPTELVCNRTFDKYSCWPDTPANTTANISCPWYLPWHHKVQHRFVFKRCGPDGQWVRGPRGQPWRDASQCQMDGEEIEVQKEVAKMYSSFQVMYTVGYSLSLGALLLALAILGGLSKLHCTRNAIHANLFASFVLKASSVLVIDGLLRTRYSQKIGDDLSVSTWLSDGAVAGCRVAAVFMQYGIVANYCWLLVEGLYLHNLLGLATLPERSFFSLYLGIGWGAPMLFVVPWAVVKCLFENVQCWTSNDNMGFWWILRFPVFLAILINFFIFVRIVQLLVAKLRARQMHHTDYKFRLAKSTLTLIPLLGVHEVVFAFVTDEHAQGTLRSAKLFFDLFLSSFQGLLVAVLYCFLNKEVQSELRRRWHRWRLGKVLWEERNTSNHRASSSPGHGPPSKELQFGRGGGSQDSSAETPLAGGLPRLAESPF

Binder | cAMP production (pmol/ml/µg prt) with saturated glucagon peptide, at 1 nM [pmol/ml/µg prt] | cAMP production (pmol/ml/µg prt) with saturated glucagon peptide, at 10 nM [pmol/ml/µg prt] | cAMP production (pmol/ml/µg prt) with saturated glucagon peptide, at 100 nM [pmol/ml/µg prt] | cAMP production (pmol/ml/µg prt) with saturated glucagon peptide, at 1 µM [pmol/ml/µg prt] | cAMP production (pmol/ml/µg prt) with saturated glucagon peptide, at 10 µM [pmol/ml/µg prt]
VHAEGT[αMePhe(2-F)]TS[αMeD][αMeBip(OMe)][hhPhe]-NH2 [Seq. ID. No. 70] | 2 | 0 | 0 | 0 | 0
VH[αMeP]EGT[αMePhe(2,6-F2)]TS[αMeD][αMeBip(OMe)][hhPhe] (not fully specified (C-terminus)) [Seq. ID. No. 80] | 0 | 0 | 0 | 0 | 0
B1 | 5 | 3 | 1 | 0 | 0
B2 | 4 | 2 | 0 | 0 | 0
B3 | 15 | 12 | 8 | 4 | 2
VH[Aib]QGT[αMePhe(2-F)]T[αMeS]D[αMeBip(OMe)][αMeAPPA] (not fully specified (C-terminus); reading uncertain) [Seq. ID. No. 167] | 9 | 6 | 5 | 3 | 0
B4 | 5 | 2 | 0 | 0 | 0
B5 | 4 | 2 | 0 | 0 | 0
VH[Aib]QGT[αMePhe(2,6-F2)]TS[αMeD][αMeBip(OMe)][αMeAPPA] (not fully specified (C-terminus); reading uncertain) [Seq. ID. No. 199] | 14 | 11 | 7 | 3 | 0
VH[αMeP]QGT[αMePhe(2,6-F2)]TS[αMeD][αMeBip(OMe)][αMeAPPA] (not fully specified (C-terminus); reading uncertain) [Seq. ID. No. 200] | 10 | 8 | 6 | 4 | 1
VH[αMeP]EGT[αMePhe(2,6-F2)]TS[αMeD][αMeBip(OMe)][αMeAPPA] (not fully specified (C-terminus); reading uncertain) [Seq. ID. No. 204] | 9 | 6 | 5 | 3 | 0
B6 | 4 | 2 | 0 | 0 | 0
VVHSEGTFTSD[αMeBip(OMe)][hhPhe] (not fully specified (C-terminus); printed as VVHSEGTFTSD-(αMe-Bip(OMe))-(APPA)) [Seq. ID. No. 209] | 0 | 0 | 0 | 0 | 0
